Data as given in the nanobody polyreactivity screen of Harvey et al. (2022).

Test: yeast display, Sf9 membrane polyspecificity reagent, FACS + sequencing; frameworks hold sequencing errors
Summary of the method: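 Galactose-induced (36–48 hours) yeast carrying a synthetic nanobody display library were exposed to 10% biotinylated, detergent-solubilized Sf9 membrane reagent at 4 °C for 1 hour. FACS followed streptavidin microbead enrichment, using low and high (top ~1%) gates for expression (anti-HA) and reagent binding (streptavidin). Colony PCR, MiSeq 2 × 250 sequencing and CDR-length filtering followed. Labels for polyreactivity reflect the gate of origin.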

Sequence	polyreactivity (PSR sort gate)
QVQLVESGGGLVQAGGSLRISCAASGHIFFYYTMGWYRPAPGKERELVAGITIGGSTNYADSVKGRFTISRDNAKNTVSLQMNSLKPEDTAVYYCNVVKYVYIYSYWEYYYWGQGTQVTVSS	low polyreactivity
QVQLVESGGGLVQAGGSLRISCAASGIIFALYAMGWYRQAPGKERELVAAISWSGDRTYYADSVKGRFTISRDNAKNTVYLQMNSLKPEDTAVYYCAADDYTADAVQRFYYWGQGTQVTVSS	low polyreactivity
QVQLVESGGGLVQAGGSLRISCAASGIIFDRYVMGWYRQAPGKERELVATITRSVNTDYADSVKGRFTISRDNAKNTVYLQMNSLKPEDTAVYYCAARKYYYFPVAYDYWGQGTQVTVSS	high polyreactivity
QVQLVESGGGLVQAGGSLRISCAASGIIFGEYAMGWYRQAPGKERELVAAISQSGGTYYADSVKGRFTISRDNAKNTVYLQMNSLKPEDTAVYYCNADYWAYISRVRYDYWGQGTQVTVSS	low polyreactivity
QVQLVESGGGLVQAGGSLRISCAASGITFEGYAMGWYRQAPGKESEFVAAITSTGTSTRYADSVKGRFTISRDNAKNTVYLQMNSLKPEDTAVYYCAAVARRLNTGKYYYWGQGTQVTVSS	high polyreactivity
QVQLVESGGGLVQAGGSLRISCAASGITFGRYTMGWYRQAPGKERELVAAITNGDITYYADSVKGRFTISRDNAKNTVYLQMNSLKPDDTAVYYCAADRYFWYDYWGQATQVTVSS	high polyreactivity
QVQLVESGGGLVQAGGSLRISCAASGITFNKNDMGWYRQAPGKERELVAAISGRGGSTYYADSVKGRVTISRDNAKNTVYLQMNSLKPEDTAVYYCAADNFKGDSYGTGNYDYWGQGTQVTVSS	high polyreactivity
QVQLVESGGGLVQAGGSLRISCAASGITFRYYTMGWYRQAPGKERELVAAINYRGGRTYYADSVKGRFTISRDNAKNTVYLQMNSLKPEDTAVYYCNTARVSRLGWSTTSDSWGQGTQVTVSS	high polyreactivity
QVQLVESGGGLVQAGGSLRISCAASGLIFAIYAMGWYRQAPGKERELVAAIRWSGASPYADSVKGRFTISRDNAKKTVYLQMNSLKPEDSAVYYCAADDLLDYDYWGQGTQVTVSA	low polyreactivity
QVQLVESGGGLVQAGGSLRISCAASGRICWNYALGWYRQAPGKEMELVASISYRGGSTYYADSVKGRVTISRDYAKNTVYLQMNSLKPEDTAVYYCAARSRQARRTDYGYWGQGTQVTVSS	high polyreactivity
QVQLVESGGGLVQAGGSLRISCAASGRIFATNAMGWYRQAPGKERELVATITRSAGRTYYADSVKGRFTISRDTAKNTVYLQMNSLKPEDNAVYYFAASYGDTEPGYREYDYWGQGTQVTVSS	low polyreactivity
QVQLVESGGGLVQAGGSLRISCAASGRIFGKNALGRYRQAPGKERDLVAAITGSGGSTYYADSVKGRFTISRDNAKNTVYLQMNSLKPEDTAVYYCATAYAVYHVEYGYWGQGTQVTVSS	low polyreactivity
QVQLVESGGGLVQAGGSLRISCAASGRIFHANAMGWYRQAPGKERELLAGISRNGGRTYYADSVKGRFTISRDNAKYTVYLQMNSLKPEDTAVYYCAADGLTGSKYRATGYYWGQGTQVTVSS	high polyreactivity
QVQLVESGGGLVQAGGSLRISCAASGRIFYFNGMGWYRQAPGKERELVAAITSGGSTYYADSVKGRFTISRDNAKNTVYLQMNSLKPEDTAVYYCAAQNAWWSNGRSYDYWGQGTQVTVSS	low polyreactivity
QVQLVESGGGLVQAGGSLRISCAASGRIFYYNAIGWYRQAPGKERELVATITGSGGSSYYADSVKGRFTISRDNAKNTVYLQMKTLKPEDSAVYYCIASRWYYDFYNLDYWGQGTQVTVSS	low polyreactivity
QVQLVESGGGLVQAGGSLRISCAASGRTCNHYTMGWYRPAPGKERELVAAITSGGSTYYADSVKGRFTISRDNAKNTVYLQMNSLKPEDTAVYYCARVRPLYHYSRYDYWGQGTQVTVSS	high polyreactivity
QVQLVESGGGLVQAGGSLRISCAASGRTFDINAMGWYSPAPGKERELVAAISSRGGTTFYADSVKGRFTISRDNAKNTVYLKMNSLKPEDSAVYYCAAVTSYYYTEEDYWGQGTQVTVSS	low polyreactivity
QVQLVESGGGLVQAGGSLRISCAASGRTFDPYAMGWYRQAPGKERELVAAITSGGSTYYADTVKGRFTISRDNAKNTVYLQMNSLTPEDTAVYYCAKPYYRLEDYWGQGTQVTVSS	low polyreactivity
QVQLVESGGGLVQAGGSLRISCAASGRTFFGNAMGWYRQAPGKERELGASISTRGGSTYYADSVKGRFTISRDNAKNTVYLQINSLKPADTAVYDCAAPSQSRGYYYWGQGTQVNVSS	high polyreactivity
QVQLVESGGGLVQAGGSLRISCAASGRTFFHYAMGWYRQAPGKERELVAGITSGGRTKYADSVKGRFTISRDNAKKTVYLQKNSMKPEDTAVYVCAASYIVWLTRGSPRKLFDYWGQGSQVTVSS	high polyreactivity
QVQLVESGGGLVQAGGSLRISCAASGRTFGANAMGWYRQAPGKERELVASISRSGGTTYYADSVKGRFTISRDNAKNTVYLQMNSLKPEDTAVYYCAAQYVRYGHYYWGQGTQVTVSS	high polyreactivity
QVQLVESGGGLVQAGGSLRISCAASGRTFHYNVMGWYTQAPGKERELVAAITNTGGSTYYADSVKGRFTISRDNAKNTVYLQMNSLKPEDTAVYYCAAVIWGRRYGAYPYEYWGQGTQVTVSS	low polyreactivity

Sequence	polyreactivity (PSR sort gate)
QVQLVESGGGLVQAGGSLRISCAASGRTFKRYAMGWYRQAPGKERELVAAITGTGAITYYADSVKGRFTISRDNAKNTVYLQMNSLKPEDTAVYYCNARYWYRYGGYKPVGGYYWGQGTQVTVSS	high polyreactivity
QVQLVESGGGLVQAGGSLRISCAASGRTFRYYGMGWYRQPPAKERVVAAITWSGDTTYYADSVKGRFTISRDNAKNTVYLQMNSLKPEDTAVYYFAAQSWHRYYYWGQGTQVTVSS	high polyreactivity
QVQLVESGGGLVQAGGSLRISCAASGRTFWKYVRGWYRQAPGKERELVAVISRPAGSTYYADSVKGRFTISRDNAKNTVYLQMNSLKPEDTAVYYCAKRPKNKPVLGDYDHWGQGTQVTVSS	low polyreactivity
QVQLVESGGGLVQAGGSLRISCAASGRTFYNNAMGWYRQAPGTERELVATIHNRGGTTYYADSVKGRFTISRYNAKNTVYLLMNSLKPEDTAVYYCAKSAQRYSYRYYYWGQGTQVTVSS	high polyreactivity
QVQLVESGGGLVQAGGSLRISCAASGRTLGGYTMGWYRQAPGKERELVAAITGSGSNTYYADSVKGRFTISRDNAKNTVYLQMNSLKPEDTAVYYCAAPYSYRTWYPYGYWGQGTQVTLSS	high polyreactivity
QVQLVESGGGLVQAGGSLRISCAASGSIFGGYSMGWYRQAPGKERELVAAIRYSGVSTYYADSVKGRFTISRDNAKYTVYFQMNSLKAEDTAVYYCNAVPFYYHYDYWGQGTQVTVSS	high polyreactivity
QVQLVESGGGLVQAGGSLRISCAASGSIFGYNTMGWYRQAPGKERELVAAIRGSDSSTYYADSVKGRFTISRDNAKNTVYLQMNSVIPEDTAVYYCAAKYYWGQGTQVTVSS	high polyreactivity
QVQLVESGGGLVQAGGSLRISCAASGSIFLKYAMGWYRQAPGKERELVAAITWTDDRTYYADSVKGRFTISRDNAKNTVYLQMNSLKPEDTAVYYCNTATSKSSYRHYDYWGQGTQVTVSS	high polyreactivity
QVQLVESGGGLVQAGGSLRISCAASGSILTHYAMGWYRQAPGKERELVADINSGGGTSYADSVKGRFTISRDNAKNTVYLQMNSLKPEDTAVYYCAAAWWPYRYPTYYSQFDYWGQGTQVTVSS	low polyreactivity
QVQLVESGGGLVQAGGSLRISCAASGSISVRNVMGWYRHAPGKERELVATIRRTGGSTSYADSVKGRFTISRDNAKNTVYLQMNSLKPEDPAVYYCAAVGYTTYRRYDYWGQGTQVTVSS	low polyreactivity
QVQLVESGGGLVQAGGSLRISCAASGSNFAYYAMGWYRQAPGKERELVAAITRGGRTYYADSVKGRFTISRDNAKNTVYLQMNSLKPEDTAVYYCNARNYTWYSSRFMRFDYWGLGTQVTVSS	high polyreactivity
QVQLVESGGGLVQAGGSLRISCAASGSSYGTYAMGWYRKAPGKERELVAAINFSGTSTYYADSVKGRFTISRDKAKHTVYLQMNRLKPEETADYYCAARFYWKYGRYDNWGQGTQVTVSS	high polyreactivity
QVQLVESGGGLVQAGGSLRISCAASGSTFDPNVMGWYRQAPGKERELVAVITTTGVSTYYADSVKGRFTISRDNAKNTVYLQMNSLKPEETAVYYCNAKWYWYLTRDDFRYRYTYDYWGQGTQVTVSS	low polyreactivity
QVQLVESGGGLVQAGGSLRISCAASGSTFDRNAMGWYRQPPGKERELVAAISSSGGRTYYADSVKGRFTISRDNAKNTVYLQMNSLKPEDTPVYYCAAAFSLGMYWGKGTQVTVSS	high polyreactivity
QVQLVESGGGLVQAGGSLRISCAASGSTFKGYAMGWYRQSPGKERELVAAISRSGTRTYYADSVKVRFTISRDTAKNTVYLQMNSLNPEDTAVYSCNKDTGYIAHDNENGRDYWGQGTQVTVSS	low polyreactivity
QVQLVESGGGLVQAGGSLRISCAASGSTFKRNVMGWYRQAPGKERELVAAISRTDGRTYYADSVKGRFTISRDNAKNSVYLEMNSLKPEDTAVYYCAATTGHRTYRYYYWGHGTQVTVSS	high polyreactivity
QVQLVESGGGLVQAGGSLRISCAASGSTFRGYAMGGYRQAPGKERDLVAAMSSNGDRTFYADSVKGRFTISRDNAMNTVYLLMNSLKAEDTAVYYCNAVYSGSWQLYGYWGQGSQVTVSS	high polyreactivity
QVQLVESGGGLVQAGGSLRISCAASGSTFRRYAMGWYRQAPGKEREFVAVITSSGVITYYADSVKGRFTISRDNAKNTVYLQMNSLKPEDTAVYYCATDARSMDYWGQGTQVTVSS	low polyreactivity
QVQLVESGGGLVQAGGSLRISCAASGSTFSYYAMGWYRQAPGKERELVAAISSRGGSTYYADSVKGRFTISRDNAKNTVYLQMNSLKPEDTAVYYCAAVRNRHGYDYWGQGTQVTVSS	high polyreactivity
QVQLVESGGGLVQAGGSLRISCAASGSTFYHNVMGWYRPAPGKERELVASIDTGDSTNYADSVKGRFTISLDNAKNTVYLQMNSLKPEDTAVYYCNADSYPALNKRGYDYWGQGTQVTVSA	low polyreactivity
QVQLVESGGGLVQAGGSLRISCAASGSTIQQYAMGRYRQAPGKEREFVAAISWRGGRTYYADSVKGRFTISRDNAKNTVYLQMNSLKPEDTAVYYCAVDPSIYRLSAYYYDYWGQGTQVTVSS	low polyreactivity
